{"source": "patent US20160333101A1", "about": "(GENOR BIOPHARMA, published 2016)", "binders": {"B1": {"name": "RANK-Fc (Fc fusion)", "chain": "IAPPCTSEKHYEHLGRCCNKCEPGKYMSSKCTTTSDSVCLPCGPDEYLDSWNEEDKCLLHKVCDTGKALVAVVAGNSTTPRRCACTAGYHWSQDCECCRRNTECAPGLGAQHPLQLNKDTVCKPCLAGYFSDAFSSTDKCRPWTNCTFLGKRVEHHGTEKSDAVCSSSLPARKPPNEPHVYLP", "notes": "Bought from R & D Systems; also called receptor RANK-Fc; not shown: Human IgG Fc part and any linker of the bought R & D Systems RANK-Fc"}, "B2": {"name": "pFL249-H16u (scFv)", "scFv": "QVQLVQSGAELKKPGASVKLSCKASGYTFTTYWLQWVRQAPGQGLEWMGAIYPGPGNTKYTQKFKDRFTITADTSKSTAYMQLNSLKSEDSAVYYCARRGSRRGIAYWGQGTLVTVSAASSGGGGSGGGGSGGGGSSNIVLTQSPASLAVSLGQRATISCRASESVDSYGRSFMHWYQQRPGQPPTLLIYLASNLESGVPVRFSGSGSRTDFTLTIDPVEADDAATYYCQQDNEDPYTFGGGTKLEIK", "notes": "scFv in IPTG-induced E. coli supernatant, screened by ELISA; also called H16u scFv clone of the VH library; not shown: c-myc tag and his tag of vector pFL249"}, "B3": {"name": "pFL249-H16 (scFv)", "scFv": "B2 scFv with T74K", "notes": "scFv in IPTG-induced E. coli supernatant, screened by ELISA; also called H16 scFv clone of the VH library; not shown: c-myc tag and his tag of vector pFL249"}, "B4": {"name": "pFL249-H114 (scFv)", "scFv": "B2 scFv with K12V, K13Q, A40T, F68V, K76T, K87R", "notes": "scFv in IPTG-induced E. coli supernatant, screened by ELISA; also called H114 scFv clone of the VH library; not shown: c-myc tag and his tag of vector pFL249"}, "B5": {"name": "recombinant human RANKL (ligand)", "chain": "HHHHHHHHHHGSQHIRAEKAMVDGSWLDLAKRSKLEAQPFAHLTINATDIPSGSHKVSLSSWYHDRGWAKISNMTFSNGKLIVNQDGFYYLYANICFRHHETSGDLATEYLQLMVYVTKTSIKIPSSHTLMKGGSTKYWSGNSEFHFYSINVGGFFKLRSGEEISIEVSNPSLLDPDQDATYFGAFKVRDID"}, "B6": {"name": "G14 (antibody, human IgG2, kappa, V domains shown)", "VH": "QVQLVQSGAEVKKPGASVKVSCKASGYTFTTYWLQWVRQAPGQGLEWMGAIYPGPGNTKYTQKFKDRVTITADESTSTAYMELSSLRSEDTAVYYCARRGSRRGIAYWGQGTLVTVSA", "VL": "DIVMTQSPDSLAVSLGERATINCRASESVDSYGRSFMHWYQQKPGQAPRLLIYLASNLESGVPSRFSGSGSGTDFTLTINSLEAEDAATYYCQQDNEDPYTFGGGTKLEIKG"}, "B7": {"name": "commercial hRANKL standard (ligand, human, UniProt O14788 140-317, looked up)", "chain": "IRAEKAMVDGSWLDLAKRSKLEAQPFAHLTINATDIPSGSHKVSLSSWYHDRGWAKISNMTFSNGKLIVNQDGFYYLYANICFRHHETSGDLATEYLQLMVYVTKTSIKIPSSHTLMKGGSTKYWSGNSEFHFYSINVGGFFKLRSGEEISIEVSNPSLLDPDQDATYFGAFKVRDID"}}, "key": {"[1]": {"biological_target": "B5", "experiment": "ELISA, coated recombinant human RANKL, RANK-Fc titrated, anti-human IgG-Fc", "method": "(§1) The samples are diluted to 1 μg/ml, was added 100 and incubated overnight at 4° C. RANK-Fc gradient diluted from 10 μg/ml is added, 1:20,000 dilution of secondary antibody (goat anti-human IgG-Fc) is added, the sample is incubated for 1 hour at room temperature, is colored using TMB chromogenic color system. Absorbance value to each well of the 96-well plate is measured on the multifunction microplate reader with a measurement wavelength of 450 nm, a reference wavelength of 630 nm, absorbance value to each well (OD)=OD450 nm-OD630 nm."}, "[2]": {"biological_target": "B7", "experiment": "ELISA, coated commercial hRANKL standard, RANK-Fc titrated, anti-human IgG-Fc", "method": "as §1"}, "[3]": {"biological_target": "B5", "experiment": "ELISA, scFv supernatant on coated hRANKL, anti-c-myc-HRP; threshold of the clones sent for sequencing", "method": "The plates are washed three times with PBST (containing 0.05% Tween 20). The plates are closed with blocking solution (PBS solution containing 2% (WN) of BSA) for 1˜1.5 hours at room temperature. […] The closed microtiter plate is incubated for 2 hours at room temperature, washed three times with PBST. […] After the microtiter plate is washed six times with PBST, TMB substrate (purchased from Cell Signaling Technology, Cat. NO.7004) is added, and the samples are colored at room temperature for 10 minutes, 50 μl 2 M HCl is added in each well to terminate the color, and OD450 nm reading is detected using the M5 equipment.\nIf OD450>0.4, it is considered as a positive coloration."}, "[4]": {"biological_target": "T1, RANK on RAW264.7 cells (mouse (RAW264.7 cells), UniProt O35305 31-625)", "T1 sequence (looked up)": "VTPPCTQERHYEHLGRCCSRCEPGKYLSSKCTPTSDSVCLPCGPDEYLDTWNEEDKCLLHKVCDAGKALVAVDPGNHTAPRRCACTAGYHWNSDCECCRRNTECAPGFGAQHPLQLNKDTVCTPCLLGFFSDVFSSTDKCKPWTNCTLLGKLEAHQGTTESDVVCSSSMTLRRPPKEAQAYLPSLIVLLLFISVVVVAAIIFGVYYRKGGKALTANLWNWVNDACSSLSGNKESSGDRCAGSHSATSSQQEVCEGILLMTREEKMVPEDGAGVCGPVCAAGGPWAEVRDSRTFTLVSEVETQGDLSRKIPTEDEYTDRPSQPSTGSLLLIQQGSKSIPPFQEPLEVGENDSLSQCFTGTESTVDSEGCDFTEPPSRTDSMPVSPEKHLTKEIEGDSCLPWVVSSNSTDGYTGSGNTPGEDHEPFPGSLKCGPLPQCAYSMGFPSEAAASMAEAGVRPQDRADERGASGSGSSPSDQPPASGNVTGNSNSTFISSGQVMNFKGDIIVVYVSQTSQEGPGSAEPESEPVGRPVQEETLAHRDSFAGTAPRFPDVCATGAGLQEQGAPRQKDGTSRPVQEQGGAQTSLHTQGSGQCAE", "experiment": "cell-based or functional assay"}, "[5]": {"biological_target": "B5", "experiment": "cell-based or functional assay"}, "[6]": {"biological_target": "B5", "experiment": "cell-based or functional assay", "remark": "listed apart in the source"}}, "note": "Changes are numbered by the printed parent chain.", "data": [{"binder": "B1", "values": [{"measurement": "EC50", "setting": "[1]", "value": 0.0109, "unit": "µg/mL"}, {"measurement": "EC50", "setting": "[2]", "value": 0.0056, "unit": "µg/mL"}]}, {"binder": "B2", "values": [{"measurement": "OD450", "setting": "[3]", "value": 1.2}]}, {"binder": "B3", "values": [{"measurement": "OD450", "setting": "[3]", "value": 1.2}]}, {"binder": "B4", "values": [{"measurement": "OD450", "setting": "[3]", "value": 1.2}]}, {"binder": "B5", "values": [{"measurement": "EC50 of inducing RAW264.7 cells to be differentiated into osteoclasts (tartrate-resistant acid phosphatase, pNPP)", "setting": "[4]", "value": 113, "unit": "ng/ml"}]}, {"binder": "B6", "values": [{"measurement": "IC50 (ng/ml) in RAW264.7 cells, osteoclast differentiation induced by RANKL", "setting": "[5]", "value": "~517", "unit": "ng/mL"}, {"measurement": "IC50 for inhibiting hRANKL induced RAW264.7 cell differentiation", "setting": "[6]", "value": 0.247, "unit": "µg/mL"}]}, {"binder": "B7", "values": [{"measurement": "EC50 of inducing RAW264.7 cells to be differentiated into osteoclasts (tartrate-resistant acid phosphatase, pNPP)", "setting": "[4]", "value": 35.7, "unit": "ng/ml"}]}]}
